Results: the supplement of paper PMC9170038

Tested on: MS2 coat protein
Assay: apparent KD of MS2 coat protein; higher = weaker reporter binding
Conditions: Eterna round: R107
Summary of the method: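 The designed RNA switches were transcribed on-chip from Illumina sequencing clusters. In 100 mM Tris-HCl pH 7.5, 80 mM KCl and 4 mM MgCl2, without or with constant ligand, they were titrated with SNAP-549-labelled MS2 coat protein from 0.7 or 1.5 nM to 3 µM in twofold steps. Apparent KD is the per-design median of normalised cluster binding-curve fits.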

[1] = input ligand: theophylline 20 uM
[2] = input ligand: theophylline 2 mM
[3] = input ligand: tryptophan 2.4 mM

Sequence	apparent KD of MS2 coat protein (input ligand: arginine 13.2 mM)	apparent KD of MS2 coat protein [1]	apparent KD of MS2 coat protein [2]	apparent KD of MS2 coat protein [3]	apparent KD of MS2 coat protein (input ligand: none)
UGGACGCAACGAGCACGAGGUCGGCAGCUACGAGGACCGGUACGGCCGCCACUCGAGUUACGACAUGAGGAUCACCCAUGUAAGG [theeternabot_exclusion_MS2_Trp_A_45]	27.9 nM	61.1 nM	51.8 nM	–	–
UGGUACAUGAGGAUCACCCAUGUUCCAGAUACCAGACUCCCGGUGGUCCCUUGGCAGCUGGUGGUACAUGAGGAUCACCCAUGUG [Exclusion Theophylline A GF17]	28.5 nM	44.7 nM	–	30.8 nM	–
UGUAAUGUGGGAAGGAGCGCAUACUUCACAUGAGGAUCACCCAUGUCAAGACGUGAGUCAGUGCAGGUAGGUCGCCUAGUUUAGA [Same State - Arginine B (Freestyle 18)]	37.2 nM	75.4 nM	88.9 nM	42 nM	97 nM
UGUACAUGAGGAUCACCCAUGUUACGCGAUACCAGACAUGAGAGUGUCCCUUGGCAGCGUGGAGCUGAUACGGCGGGAAGCCGGA [#10 SameState-TheophyllineA]	16.1 nM	50.2 nM	–	45.9 nM	–
UGUAUGGACUGAAGGAGCGACUCAAAAUAACAUGAGGAUCACCCAUGUAAGGCGAAAGCCGGUCAGGUAGGUCGCAGUCCAUACU [ArgBX 3]	13.7 nM	16.1 nM	10.6 nM	11.6 nM	11.3 nM
UGUAUGGACUGAAGGAGCGCCUCAAAAUAACUUGAGGAACACCCAAGUAAGGCGAAAGCCGGGCAGGUAGGUCGCAGUCCAUACU [ArgBX 3]	31 nM	23 nM	46.1 nM	34.6 nM	24.6 nM
UGUAUGGACUGAAGGAGCGGAAAAUAAAUCUGAGGAUCACCCAGGUAAUAGGCGAAAGCCAUCCAGGUAGGUCGCAGUCCAUACU	56.9 nM	101 nM	133 nM	105 nM	86.7 nM
UGUAUGGACUGAAGGAGCGGGAAAAUAACUUGAGGAUCACCCAGGUAAAAGGCGAAAGCCACCCAGGUAGGUCGCAGUCCAUACU	21.5 nM	30.1 nM	22.4 nM	25.9 nM	26.2 nM
UGUAUGGACUGAAGGAGCGGGUUGAUAACCUGAGGAUCAUCCAGGUAAAAGGCGAAAGCCGCCCAGGUAGGUCGCAGUCCAUACU	174 nM	227 nM	280 nM	237 nM	158 nM
UGUAUGGACUGAAGGAGCGGGUUGAUAAUCUGAGGAUCACCCAGGUAAAAGGCGAAAGCCGCCCAGGUAGGUCGCAGUCCAUACU	20.5 nM	36.1 nM	31.5 nM	33.4 nM	25.3 nM
UGUAUGUGAUCUGAUACCAGUCCAACUGGUAAACCAUGAGGAUCACCCAUGGAAAAUUGGGACCCUUGGCAGCAGAUCGCAUACU	96.5 nM	236 nM	20.9 nM	322 nM	–
UGUAUGUGAUUUGAUACCAGACCAACUGGUAAUACAUGAGGAUCACCCAUGUAGAUUUGGGUCCCUUGGCAGCAAAUCGCAUACU [SSTheo B #23]	45.6 nM	34.1 nM	–	46.1 nM	–
UGUAUGUGAUUUGAUACCAGACCAGCUGGUGGUACCUGAGGAACACCCAGGUAGGUUUGGGUCCCUUGGCAGCAAAUCGCAUACU [SS Theo B #24 Ms7]	36.2 nM	34.4 nM	21.4 nM	33.3 nM	–
UGUCCUCAUGCGGCCGCCACUGUCGGCCGCCACUAAACCUGAGGAUCACCCGGGUAGGACCGGGACAGGACCGGGCAUGGGUGCU [#DoubleAptamer 4 #AlternativeMS2]	47.4 nM	486 nM	686 nM	111 nM	315 nM
UGUCGGCGAAAGUUGGCGUGUCUUGCUGGUCGAGGACCGGUACGGCCGCCACUCGAUCCUUCGCACAUGAGGAUCACCCAUGUUG [SS Tryp A #24]	25.8 nM	49.1 nM	34.8 nM	–	–
UGUGCAGGAUGUGUAAAAGGUCUUGGGCAUCGAGGACCGGUACGGCCGCCACUCGGCUGUACAUGAGGAUCACCCAUGUCAGGGU [#1 Same State - Tryptophan A Attempt #21 (HarryS)]	30.5 nM	554 nM	694 nM	737 nM	220 nM
UGUGUCGUCUGAAGGAGCGGCUCUUGAUCCUCGUGGGACAUGAGGAUCACCCAUGUCUCGAGCCAGGUAGGUCGCAGGCGGCACA [#27 Exclusion - Arginine B]	31.3 nM	32.6 nM	23.8 nM	20.7 nM	26 nM
UUAUAAGUACCGGUCCUCAGAUCCUCAUGACGAGGACCGGUACGGCCGCCACUCGAAACAUGAGGAUCACCCAUGUAAUAAUAAU [Brourdmod05]	18.8 nM	29.3 nM	27.7 nM	–	–
